# Experimental data as given in PMC7190159, “The L motifs of two moss pentatricopeptide repeat proteins are involved in RNA editing but predominantly not in RNA recognition”.
# Changes are numbered by the printed parent chain.
# T1: 56ΔDYW-13L[ED] (Physcomitrella patens, UniProt A0A2K1IWP1 161-764, V592E)
# T1 sequence: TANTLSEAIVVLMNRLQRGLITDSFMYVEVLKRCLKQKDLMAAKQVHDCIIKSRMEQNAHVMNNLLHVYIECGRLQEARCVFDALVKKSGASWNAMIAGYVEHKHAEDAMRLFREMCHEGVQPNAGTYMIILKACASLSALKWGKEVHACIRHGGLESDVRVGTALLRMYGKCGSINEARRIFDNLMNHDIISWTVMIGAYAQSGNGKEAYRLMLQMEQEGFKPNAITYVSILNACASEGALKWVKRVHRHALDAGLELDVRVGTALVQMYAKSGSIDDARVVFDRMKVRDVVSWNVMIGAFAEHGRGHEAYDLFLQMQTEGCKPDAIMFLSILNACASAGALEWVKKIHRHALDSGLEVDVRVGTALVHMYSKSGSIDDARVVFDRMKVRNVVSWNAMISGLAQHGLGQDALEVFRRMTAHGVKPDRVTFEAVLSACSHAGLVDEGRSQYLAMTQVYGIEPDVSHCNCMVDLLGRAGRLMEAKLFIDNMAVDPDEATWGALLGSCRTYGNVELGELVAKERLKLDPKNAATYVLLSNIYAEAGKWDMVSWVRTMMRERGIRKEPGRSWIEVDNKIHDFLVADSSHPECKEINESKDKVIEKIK
# T2: 56ΔDYW-13L[PD] (Physcomitrella patens, UniProt A0A2K1IWP1 161-764, V592P)
# T2 sequence: T1 sequence with E432P
# T3: 56ΔDYW-nad3L (Physcomitrella patens, UniProt A0A2K1IWP1 161-764, V188N;M289T;V390T;D420N;L491N;D521S;V592N;D623S)
# T3 sequence: T1 sequence with V28N, M129T, V230T, D260N, L331N, D361S, E432N, D463S
# T4: 56ΔDYW-wt (PpPPR_56 without transit peptide and DYW domain) (Physcomitrella patens, UniProt A0A2K1IWP1 161-764)
# T4 sequence: T1 sequence with E432V
# B1: nad3-edit (ssRNA)
# RNA: UUAUUAUAUUUGAUUUGGAAGUCACCUUUUCAUUUC
# B2: nad4-edit (ssRNA)
# RNA: AUUUUUAUAUAGGUAUAGACGGUAUCUCUUCAUUUU
# B3: PpPsbI-RNA1 (ssRNA)
# RNA: UUAUUUUUUUCGUUUCUCUUUUUGUUUUU
# Columns and labels:
# Conditions in all cases: protein: recombinant; tags: N-term thioredoxin; C-term 6xHis; label: 5'-32P
# 56ΔDYW-13L[ED] [1] = target: T1, 56ΔDYW-13L[ED]; experiment: EMSA; like wt; 40 mM Tris pH 8.0, 100 mM NaCl, 4 mM DTT, 0.1 mg/mL BSA, 10% glycerol, 25°C; protein 10 min, then 50 pM RNA 15 min; native 6% PAGE
# 56ΔDYW-13L[PD] [2] = target: T2, 56ΔDYW-13L[PD]; experiment: as above
# 56ΔDYW-nad3L [3] = target: T3, 56ΔDYW-nad3L; experiment: EMSA; no significant difference from wt; 40 mM Tris pH 8.0, 100 mM NaCl, 4 mM DTT, 0.1 mg/mL BSA, 10% glycerol, 25°C; protein 10 min, then 50 pM RNA 15 min; native 6% PAGE
# [4] = target: T4, 56ΔDYW-wt (PpPPR_56 without transit …); experiment: EMSA; 0-100 nM protein, 50 pM RNA; lower affinity than for nad4; 40 mM Tris pH 8.0, 100 mM NaCl, 4 mM DTT, 0.1 mg/mL BSA, 10% glycerol, 25°C; protein 10 min, then 50 pM RNA 15 min; native 6% PAGE
# [5] = target: T4, 56ΔDYW-wt (PpPPR_56 without transit …); experiment: EMSA; 0-100 nM protein, 50 pM RNA; better affinity than for nad3; 40 mM Tris pH 8.0, 100 mM NaCl, 4 mM DTT, 0.1 mg/mL BSA, 10% glycerol, 25°C; protein 10 min, then 50 pM RNA 15 min; native 6% PAGE
# [6] = target: T4, 56ΔDYW-wt (PpPPR_56 without transit …); experiment: EMSA; 100 nM protein; 40 mM Tris pH 8.0, 100 mM NaCl, 4 mM DTT, 0.1 mg/mL BSA, 10% glycerol, 25°C; protein 10 min, then 50 pM RNA 15 min; native 6% PAGE
# 56ΔDYW-nad3L [7] = target: T3, 56ΔDYW-nad3L; experiment: as above
# 56ΔDYW-13L[ED] [8] = target: T1, 56ΔDYW-13L[ED]; experiment: as above
# 56ΔDYW-13L[PD] [9] = target: T2, 56ΔDYW-13L[PD]; experiment: as above
Binder,binding result (56ΔDYW-13L[ED] [1]),binding result (56ΔDYW-13L[PD] [2]),binding result (56ΔDYW-nad3L [3]),binding result [4],binding result [5],binding result [6],binding result (56ΔDYW-nad3L [7]),binding result (56ΔDYW-13L[ED] [8]),binding result (56ΔDYW-13L[PD] [9])
B1,binds,binds,binds,binds,–,–,–,–,–
B2,binds,binds,–,–,binds,–,–,–,–
B3,–,–,–,–,–,no binding,no binding,no binding,no binding
